# Source: PMC8630228
# Where “and” joins values, the source holds several entries; their conditions need not be identical. Equal values may be shown once.
# Molecular target: precursor δ-latroinsectotoxin (full-length precursor δ-LIT) (Latrodectus tredecimguttatus)
# Assay: cryo-EM, reference-free 2D classification of particles; full-length δ-LIT at 0.4 mg/ml on holey carbon grids; particles sorted into monomer, dimer, trimer and tetramer classes
substance,measurement,value
precursor δ-latroinsectotoxin (full-length precursor δ-LIT) (natural protein),percent of particles that are dimers,50%
same,percent of particles that are tetramers,2.5%
same,percent of particles that are trimers,2.5%
same,stoichiometry N,2 and 3 and 4
